Publication PMC9706017, “Crystal Structure and Molecular Mechanism of Phosphotransbutyrylase from Clostridium acetobutylicum” (Journal of Microbiology and Biotechnology, 2021)

Target: the molecule itself
Assay: crystal structure; apo CaPTB with sulfate ions; crystals from 20% PEG3350, 0.2 M lithium sulfate, 0.1 M HEPES pH 7.5, 20°C; space group P21; 2.9 Å; eight molecules in the asymmetric unit

B1: phosphotransbutyrylase from Clostridium acetobutylicum (enzyme, UniProt P58255 1-301, looked up)
chain: MIKSFNEIIMKVKSKEMKKVAVAVAQDEPVLEAVRDAKKNGIADAILVGDHDEIVSIALKIGMDVNDFEIVNEPNVKKAALKAVELVSTGKADMVMKGLVNTATFLRSVLNKEVGLRTGKTMSHVAVFETEKFDRLLFLTDVAFNTYPELKEKIDIVNNSVKVAHAIGIENPKVAPICAVEVINPKMPSTLDAAMLSKMSDRGQIKGCVVDGPLALDIALSEEAAHHKGVTGEVAGKADIFLMPNIETGNVMYKTLTYTTDSKNGGILVGTSAPVVLTSRADSHETKMNSIALAALVAGNK
notes: phosphotransbutyrylase (phosphate butyryltransferase, PTB) of Clostridium acetobutylicum; Octamer (four dimers) in the crystal and by size-exclusion chromatography; Removal of the tag is not mentioned; also called CaPTB; PTB; source: E. coli BL21(DE3)-T1R, purified (Ni-NTA agarose, Superdex200 size exclusion)
- stoichiometry N: 8
